# Results published in patent US9383360B2, “Compositions and methods relating to lyme disease” (The United States of America, as represented by the …, priority 2012, dated 2016).
# System: chondrocyte aggregate cultures
# Experiment: Chondrocyte cytokine induction assay (Proteome Profiler Cytokine Arrays)
# Format: cell-based, human
# Details: for Cytokines released by chondrocytes in response: LPS, medium alone
# Source text: Chondrocyte aggregate cultures are used which form an extensive extracellular matrix with components characteristic of articular cartilage including aggrecan and type II collagen as described in Welter, J. et al, BioTechniques, 2007, 42(6):732-737; and Solchaga, L. A. et al., Chondrogenic Differentiation of Bone Marrow-Derived Mesenchymal Stem Cells: Tips and Tricks, 2011, 698:253-278.
# To form the chondrocyte aggregate cultures, lx10^6 human mesenchymal stem cells (passage one, Lonza, catalog #PT-2501) were plated in a T150 flask (Corning) and cultured in growth media: mesenchymal stem cell basal media (MSCBM, Lonza, #PT-3238), mesenchymal growth supplements (SingleQuots, Lonza, #PT-4105), and 5 ng/ml recombinant human […] (Shenandoah Biotechnology). When confluent, cells were trypsin-released (0.5% trypsin EDTA, Gibco), expanded to two T150 flasks and fed with growth media every three days. When confluent, cells were harvested, resuspended in fresh growth media containing 5% DMSO and aliquots of 1×10^6 cells were cryopreserved in liquid nitrogen.
# Human mesenchymal stem cells were used to promote chondrogenesis and chondrocyte aggregate formation for use in these studies. Two vials of passage three cryopreserved cells were thawed, plated in growth media in two T150 flasks and then expanded to six T150 flasks as above. Cells were harvested (0.5% trypsin EDTA, Gibco), pooled, enumerated and induced to chondrogenic differentiation as follows. Cells were resuspended in defined chondrocyte differentiation media: high glucose DMEM (Gibco), 50 μg/ml ascorbic acid-2-phosphate (Sigma), 39.3 ng/ml dexamethasone (Sigma), […] L-proline (Sigma), ITS+Premix (BD Biosciences), 10 ng/ml transforming growth factor β-3 (Shenandoah Biotechnology) and 30 μg/ml gentamicin sulfate+15 ng/ml amphotericin-B (GA-1000, Lonza, #PT-4504E). High density aggregates were obtained by plating, on average, 3×10^5 cells per well in a conical bottom 96 well plate (Thermo Scientific), pelleting by centrifugation (5 minutes at 600 g), and incubation at 37° C. and 5% CO2. Pellets formed coherent spherical aggregates by day two of culture. After seven days, wide bore tips were used to transfer aggregates to V-bottom 96 well plates (Corning). Aggregates were maintained in differentiation media at 37° C. and 5% CO2 for 3-5 weeks and fed every two days until experimentation.
# For chondrocyte cytokine induction assays, 24 hours prior to experimentation, dexamethasone containing media was removed, aggregates were rinsed with DPBS (Gibco) and dexamethasone-free differentiation media was added. For experimentation, aggregates were transferred to 24 well plates (24 aggregates per condition), spent media was removed and fresh warmed dexamethasone-free media containing samples was added. Aggregates were then incubated at 37° C. and 5% CO2 for two days.
# Recombinant BbHtrA or BbHtrA^S226A was added to culture medium and incubated with chondrocyte aggregate cultures. BbHtrA and BbHtrA^S226A were purified using an E. coli system and was expected to contain endotoxin which would have a stimulatory effect on the chondrocytes. To control for endotoxin contamination (lipopolysaccharide, LPS), an endotoxin removal kit (Noragen) was used to remove the bulk of LPS from recombinant BbHtrAs. The relative toxicity of the amount remaining in the BbHtrA and BbHtrA^S226A samples was determined by a chromogenic Limulus Amoebocyte Lysate (LAL) method (Lonza, Walkersville, Md.). Prior to addition to aggregates, LPS (44 ng, 200 EU), BbHtrA^WT (20 μg, 27.9 EU LPS) and BbHtrA^S226A ([…], 1.99 EU LPS) were incubated in 1 mg/ml polymyxin B sulfate (Sigma) on ice for 30 min with occasional mixing. Warmed dexamethasone-free medium was then added to each test condition to a final volume of 1 ml. Control aggregates were maintained in untreated medium also containing polymyxin B sulfate. The final concentration for all test conditions was 60 μg/ml polymyxin B sulfate. […]
# [1] = spent medium of chondrocyte aggregates after 48 hours, cytokine array, background subtracted
molecule,measurement,setting,value
"BbHtrA: Recombinant wild type B. burgdorferi HtrA serine protease, mature protein amino acids 38-474, expressed in E. coli (SEQ ID NO:1, 9) (protein, listed as Borrelia burgdorferi) EEKDNTVRALQDSFREVSKKILPSSVEVHATGVIKQSFPIPFFFFDMPEFDSERKSNWAGSGVIIGRDSQKKSLFYVVTNSHVVDKATELEVVSYDKKKHKAKLIGKDEKKDIALISFESDDATIKVADLGDSDKLEIGDWVMAVGSPFQFSFTVTAGIVSGLQRSANPNLQSRNLFIQTDAAINRGNSGGPLVNIKGEVIGINAWIASNSGGNIGLGFAIPVNNIKSTVDFFLKGKKIESAWLGISFYPLKTRDSEVLKSLGVESNDVSAAIIASLYPGSPAVKSGLRAGDIIMKVNGVSMSVFQDVTSYISDFYAGEKVNVEILRGNVKKNIEIVLAVRPKDKELSSSKMLPGFVVYPLVEDIKAQLNLRNWIKGVVVDYIDKNLASNIKMKSGDVILSVNSKSVSNLREFYDALEVGKNTYKILRGNDSFKITF",Cytokines released by chondrocytes in response,"additional experiments, FIG. 10: BbHtrA^WT, BbHtrA^S226A","CCL5, CCL2, CXCL1, CCL1, sICAM-1, IL-6 and IL-8"
same,Cytokines released by chondrocytes in response,"initial experiments, FIG. 9A: BbHtrA, heat denatured BbHtrA","CXCL1, CCL1, sICAM-1, IL-6, IL-8 and CCL2"
same,"GROα/CXCL1 pixel density, Mean",[1],1.349
same,"I-309/CCL1 pixel density, Mean",[1],0.535
same,"IL-6 pixel density, Mean",[1],0.627
same,"IL-8 pixel density, Mean",[1],1.581
same,"MCP-1/CCL2 pixel density, Mean",[1],0.452
same,"RANTES/CCL5 pixel density, Mean",[1],0.736
same,"sICAM-1/CD54 pixel density, Mean",[1],0.890
